Measured values: publication PMC7226213 (Cancer Science, 2020)
Values belong to the binder of their own block, whether it stands above or below them.

Assays:
[1] = biological target: T1, fibroblast growth factor 19 (FGF19), full-length (human, UniProt O95750, biotin (where co-transfected with BirA biotin-protein ligase)); assay: SPR
[2] = biological target: T1, fibroblast growth factor 19 (FGF19), …; assay: ELISA

T1 sequence (O95750 25-216): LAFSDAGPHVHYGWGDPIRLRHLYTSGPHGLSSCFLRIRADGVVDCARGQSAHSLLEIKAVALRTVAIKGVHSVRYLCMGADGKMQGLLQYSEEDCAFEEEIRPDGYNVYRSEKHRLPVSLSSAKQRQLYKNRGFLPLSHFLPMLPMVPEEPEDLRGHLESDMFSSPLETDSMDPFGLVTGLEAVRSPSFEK

binding result [1]: binds
B1: 31A3, human IgG1 Ab (antibody, V domains shown)
VH: not shown
VL: QAGLTQPASVSGSPGQSITISCTGTSSDVGGYNYVSWYQQHPGKAPKLMIYDVSNRPSGVSDRFSGSKSGNTASLTISGLQTEDEADYYCSSYTRSSTLVFGGGTQLTVL

IC50 [2]: 1.39 nM
B2: G1A8-Fab (Fab, V domains shown)
VH: not shown
VL: QAGLTQPASVSGSPGQSITISCTGTSSDVGGYNYVSWYQQHPGKAPKLMIYDVSNRPSGVSDRFSGSKSGNTASLTISGLQTEDEADYYCSSWTRSSGLVFGGGTQLTVL

fold increase of affinity over 31A3 [1]: 27 fold
fold slower dissociation rate than 31A3 [1]: 60 fold
B3: G1A8, human IgG1 Ab (antibody, V domains shown)
VH: not shown
VL: QAGLTQPASVSGSPGQSITISCTGTSSDVGGYNYVSWYQQHPGKAPKLMIYDVSNRPSGVSDRFSGSKSGNTASLTISGLQTEDEADYYCSSWTRSSGLVFGGGTQLTVL
